Publication PMC4218836, “Generation of a Single Chain Antibody Variable Fragment (scFv) to Sense Selectively RhoB Activation” (PLoS ONE, 2014)

What was measured:
GST-RhoAL63 = GST-RhoAL63 (Homo sapiens (species assumed), UniProt P61586, L63)
GST-RhoCL63 = GST-RhoCL63 (Homo sapiens (species assumed), UniProt P08134, L63)
GST-RhoBL63 [1] = target: T1, GST-RhoBL63 (Homo sapiens (species assumed), UniProt P62745, L63)
endogenous RhoC = target: T2, endogenous RhoC (Homo sapiens (HeLa S3), UniProt P08134); test: pull-down; CBD-pulldown: scFv-bound chitin beads (0,5-1 µg) with HeLa cell extracts loaded with GTPγS (100 µM), 45 min at 4°C; Western blot with anti-RhoA, anti-RhoB, anti-RhoC; GDP-loaded extracts beside it; conditions: one partner purified
T2 construct: RhoC, endogenous in HeLa S3 cells; source: endogenous, HeLa cell extract
T2 sequence (P08134 whole entry): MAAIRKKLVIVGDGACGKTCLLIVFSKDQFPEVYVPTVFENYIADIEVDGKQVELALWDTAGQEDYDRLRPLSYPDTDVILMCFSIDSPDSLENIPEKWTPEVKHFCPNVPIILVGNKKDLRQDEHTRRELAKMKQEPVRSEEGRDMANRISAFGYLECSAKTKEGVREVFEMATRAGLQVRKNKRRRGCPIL

endogenous RhoA = target: T3, endogenous RhoA (human (endogenous in HeLa), UniProt P61586); test: as above; conditions: one partner purified
T3 construct: RhoA, endogenous in HeLa S3 cells; source: endogenous, HeLa cell extract
T3 sequence (P61586 whole entry): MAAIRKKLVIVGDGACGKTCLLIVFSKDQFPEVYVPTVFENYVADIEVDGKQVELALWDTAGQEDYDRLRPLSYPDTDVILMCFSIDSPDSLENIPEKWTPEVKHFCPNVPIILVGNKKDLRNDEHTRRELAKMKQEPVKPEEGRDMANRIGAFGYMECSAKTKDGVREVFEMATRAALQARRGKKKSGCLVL

[2] = target: T4, recombinant wild type GST-RhoA (Homo sapiens (species assumed), UniProt P61586); test: ELISA; purified scFvs on wild type GST-Rho loaded with GTPγS (from crude bacterial extracts) and captured on glutathione coated plates; GDP-loaded GST-Rho beside it; conditions: one partner purified
T4 construct: RhoA wild type, loaded with GDP or GTPγS; also called RhoAwt; RhoA-GTPγS; source: E. coli BL21, crude bacterial extract, nucleotide-loaded
T4 sequence (P61586 whole entry): as above

[3] = target: T5, recombinant wild type GST-RhoB (Homo sapiens (species assumed), UniProt P62745); test: as above; conditions: one partner purified
T5 construct: RhoB wild type, loaded with GDP or GTPγS; also called RhoBwt; GST-RhoBwt; source: E. coli BL21, crude bacterial extract, nucleotide-loaded
T5 sequence (P62745 whole entry): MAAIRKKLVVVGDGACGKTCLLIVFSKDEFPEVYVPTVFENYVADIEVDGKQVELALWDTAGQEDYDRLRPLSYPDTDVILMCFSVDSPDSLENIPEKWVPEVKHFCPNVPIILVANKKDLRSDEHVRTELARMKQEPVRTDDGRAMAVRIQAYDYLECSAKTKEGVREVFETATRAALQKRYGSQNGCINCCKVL

6xHis-RhoAL63 = target: T6, 6xHis-RhoAL63 (Homo sapiens (species assumed), UniProt P61586, L63); test: ELISA; competitive ELISA (method of Friguet): purified scFvs (10^-9-10^-8 M) incubated until equilibrium (30 min, 23-25°C) with a range of concentrations of soluble 6xHis-RhoL63, free scFv then quantified on GST-Rho-coated plates with anti-c-myc-HRP; nonlinear regression; conditions: both partners purified
T6 construct: RhoA, mutant L63, cDNA in the pHIS parallel2 vector; also called 6his-RhoL63; source: E. coli BL21, purified (Ni-NTA, native condition); not shown: 6xHis, N-terminal, kept
T6 sequence (P61586 other isoform, or with tags, fused parts or gaps L63 | L63): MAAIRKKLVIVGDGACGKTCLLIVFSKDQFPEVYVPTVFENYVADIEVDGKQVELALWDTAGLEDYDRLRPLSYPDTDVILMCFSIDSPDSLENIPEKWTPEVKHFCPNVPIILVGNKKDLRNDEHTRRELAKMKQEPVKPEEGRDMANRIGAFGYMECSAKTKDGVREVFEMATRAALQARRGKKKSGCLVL

endogenous RhoB = target: T7, endogenous RhoB (human (endogenous in HeLa), UniProt P62745); test: pull-down; CBD-pulldown: scFv-bound chitin beads (0,5-1 µg) with HeLa cell extracts loaded with GTPγS (100 µM), 45 min at 4°C; Western blot with anti-RhoA, anti-RhoB, anti-RhoC; GDP-loaded extracts beside it; conditions: one partner purified
T7 construct: RhoB, endogenous in HeLa S3 cells; source: endogenous, HeLa cell extract
T7 sequence (P62745 whole entry): as the sequence (P62745 whole entry) above

6xHis-RhoBL63 = target: T8, 6xHis-RhoBL63 (Homo sapiens (species assumed), UniProt P62745, L63); test: ELISA; competitive ELISA (method of Friguet): purified scFvs (10^-9-10^-8 M) incubated until equilibrium (30 min, 23-25°C) with a range of concentrations of soluble 6xHis-RhoL63, free scFv then quantified on GST-Rho-coated plates with anti-c-myc-HRP; nonlinear regression; conditions: both partners purified
T8 construct: RhoB, mutant L63, cDNA in the pHIS parallel2 vector; also called 6his-RhoL63; source: E. coli BL21, purified (Ni-NTA, native condition); not shown: 6xHis, N-terminal, kept
T8 sequence (P62745 other isoform, or with tags, fused parts or gaps L63 | L63): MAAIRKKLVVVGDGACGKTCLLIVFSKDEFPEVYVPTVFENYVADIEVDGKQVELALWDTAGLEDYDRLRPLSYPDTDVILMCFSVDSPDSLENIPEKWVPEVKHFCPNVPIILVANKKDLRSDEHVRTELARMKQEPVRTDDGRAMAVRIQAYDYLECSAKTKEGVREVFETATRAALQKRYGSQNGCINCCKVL

GST-RhoBL63 [4] = target: T1, GST-RhoBL63; test: SPR; BIAcore T200; GST fusion Rho captured (about 1000 RU) by anti-GST antibody on CM5 chip, scFvs injected 6.25-100 nM, single-cycle kinetics, HBS-P pH 7.4, 25°C, GST alone as reference channel, 1:1 Langmuir model; conditions: both partners purified

T1 sequence (P62745 other isoform, or with tags, fused parts or gaps L63 | L63): as above
Chain of GST-RhoAL63 (P61586 other isoform, or with tags, fused parts or gaps L63 | L63): as the sequence (P61586 other isoform, or with tags, fused parts or gaps L63 | L63) above
Chain of GST-RhoCL63 (P08134 other isoform, or with tags, fused parts or gaps L63 | L63): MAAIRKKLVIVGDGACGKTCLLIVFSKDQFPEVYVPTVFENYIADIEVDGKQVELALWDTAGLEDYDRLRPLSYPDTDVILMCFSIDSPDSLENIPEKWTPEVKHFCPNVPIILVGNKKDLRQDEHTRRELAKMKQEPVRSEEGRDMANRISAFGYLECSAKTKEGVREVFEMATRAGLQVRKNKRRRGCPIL

B1: C1 (scFvC1) (antibody, V domains shown)
VH: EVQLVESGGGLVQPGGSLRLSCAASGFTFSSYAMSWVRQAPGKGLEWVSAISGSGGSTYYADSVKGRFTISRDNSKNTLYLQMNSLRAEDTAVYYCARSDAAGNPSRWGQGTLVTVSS
VL: SSELTQDPAVSVALGQTVRITCQGDSLRSYYASWYQQKPGQAPVLVIYGKNNRPSGIPDRFSGSSSGNTASLTITGAQAEDEADYYCNSRDSSGNHAYVFGGGTKLTVL
binding result (GST-RhoAL63): binds
binding result (GST-RhoCL63): binds
binding result (GST-RhoBL63 [1]): binds

B2: scFvD10-NP3-CBD (scFvD10 in fusion with the Chitin Binding Domain, on chitin beads) (scFv, V domains shown)
VH: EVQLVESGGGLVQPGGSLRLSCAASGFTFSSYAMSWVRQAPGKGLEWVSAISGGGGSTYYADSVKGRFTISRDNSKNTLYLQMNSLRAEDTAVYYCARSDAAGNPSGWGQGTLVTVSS
VL: SSELTQDPAVSVALGQTVRITCQGDSLRSYYASWYQQKPGQAPVLVIYGKNNRPSGIPDRFSGSSSGNTASLTITGAQAEDEADYYCNSRDSSGNHAYVFGGGTKLTVL
notes: as the scFv of m2; Order scFv, NP3, CBD from the plasmid pHEN-scFv-NCBD; not shown: NP3 (N-terminal domain of the phage P3 protein), C-terminal, kept
binding result (endogenous RhoC): binds
binding result (endogenous RhoA): binds

B3: scFvD10 (soluble, in fusion with the N-terminal domain of the phage P3 protein) (scFv, V domains shown)
VH: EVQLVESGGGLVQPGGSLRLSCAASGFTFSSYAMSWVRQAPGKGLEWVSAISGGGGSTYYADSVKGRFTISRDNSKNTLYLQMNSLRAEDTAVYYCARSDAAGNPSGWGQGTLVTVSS
VL: SSELTQDPAVSVALGQTVRITCQGDSLRSYYASWYQQKPGQAPVLVIYGKNNRPSGIPDRFSGSSSGNTASLTITGAQAEDEADYYCNSRDSSGNHAYVFGGGTKLTVL
notes: evolved variant of scFvC1 (VH, linker, VL); also called clone D10; source: E. coli XL1 blue, periplasmic fraction, purified (Ni-NTA); not shown: NP3 (N-terminal domain of the phage P3 protein), C-terminal, kept
binding result [2]: binds
binding result [3]: no binding
Kd (6xHis-RhoAL63): 3.38 nM

B4: scFvE3-NP3-CBD (scFvE3 in fusion with the Chitin Binding Domain, on chitin beads) (scFv, V domains shown)
VH: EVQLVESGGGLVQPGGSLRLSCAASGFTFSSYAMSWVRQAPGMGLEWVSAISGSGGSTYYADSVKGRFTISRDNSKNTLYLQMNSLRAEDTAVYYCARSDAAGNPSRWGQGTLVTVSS
VL: SSELTQDPAVSVALGQTVRITCQGDSLRSYYTSWYQQKPGQAPVRVIYGKNNRPSGVPDRFSGSSSGNTASLTITGAQAEDEADYYCNSRDSSGNHAYVFGGGTKLTVL
notes: as the scFv of m3; Order scFv, NP3, CBD from the plasmid pHEN-scFv-NCBD; not shown: NP3 (N-terminal domain of the phage P3 protein), C-terminal, kept
binding result (endogenous RhoB): binds

B5: scFvF7-NP3-CBD (scFvF7 in fusion with the Chitin Binding Domain, on chitin beads) (scFv, V domains shown)
VH: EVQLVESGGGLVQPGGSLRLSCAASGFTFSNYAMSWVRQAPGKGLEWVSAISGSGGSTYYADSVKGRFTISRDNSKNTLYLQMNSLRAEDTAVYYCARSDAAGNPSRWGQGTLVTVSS
VL: SSELTQDPAVSVALGQTVRITCQGDSLRSYYASWYQQKPGQAPVLVIYGKNNRPSGIPDRFSGSSSGNTASLTITGAQAEDEADYYCNTRDSSGNHAYVFGGGTKLTVL
notes: as the scFv of m1; Order scFv, NP3, CBD from the plasmid pHEN-scFv-NCBD; not shown: NP3 (N-terminal domain of the phage P3 protein), C-terminal, kept
binding result (endogenous RhoC): binds
binding result (endogenous RhoB): binds
binding result (endogenous RhoA): binds

B6: scFvF7 (soluble, in fusion with the N-terminal domain of the phage P3 protein) (scFv, V domains shown)
VH: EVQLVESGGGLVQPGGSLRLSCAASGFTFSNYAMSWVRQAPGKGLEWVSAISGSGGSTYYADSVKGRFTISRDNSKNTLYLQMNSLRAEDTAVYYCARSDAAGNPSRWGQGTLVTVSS
VL: SSELTQDPAVSVALGQTVRITCQGDSLRSYYASWYQQKPGQAPVLVIYGKNNRPSGIPDRFSGSSSGNTASLTITGAQAEDEADYYCNTRDSSGNHAYVFGGGTKLTVL
notes: evolved variant of scFvC1 (VH, linker, VL); also called clone F7; source: E. coli XL1 blue, periplasmic fraction, purified (Ni-NTA); not shown: NP3 (N-terminal domain of the phage P3 protein), C-terminal, kept
binding result [2]: binds
binding result [3]: binds
Kd (6xHis-RhoAL63): 2.33 nM
Kd (6xHis-RhoBL63): 4.94 nM

B7: scFvE3 (soluble, in fusion with the N-terminal domain of the phage P3 protein) (scFv, V domains shown)
VH: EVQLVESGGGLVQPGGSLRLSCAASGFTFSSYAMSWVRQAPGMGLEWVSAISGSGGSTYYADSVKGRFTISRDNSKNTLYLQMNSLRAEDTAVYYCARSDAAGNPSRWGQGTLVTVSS
VL: SSELTQDPAVSVALGQTVRITCQGDSLRSYYTSWYQQKPGQAPVRVIYGKNNRPSGVPDRFSGSSSGNTASLTITGAQAEDEADYYCNSRDSSGNHAYVFGGGTKLTVL
notes: evolved variant of scFvC1 with 4 substitutions located within the scaffold, without D100N; Isolated by subtractive panning (GST-RhoAL63 counter-selection, GST-RhoBL63 selection); also called clone E3; source: E. coli XL1 blue, periplasmic fraction, purified (Ni-NTA); not shown: NP3 (N-terminal domain of the phage P3 protein), C-terminal, kept
binding result [3]: binds
fold higher affinity than for GST-RhoAL63 (GST-RhoBL63 [4]): 10 fold
Kd (6xHis-RhoAL63): 22.9 nM
Kd (6xHis-RhoBL63): 3.63 nM
